Data set [1] in a line: Encapsulation efficiency of proteins ensilicated in GPs with 100% TEOS. It counts as physicochemical. To be noted: 100% TEOS prepolymerized at pH 2, SDS-PAGE.
Procedure: Dry GPs were mixed with a solution of 25 mg/mL protein in water (4 μL protein solution per mg GP, 100 μg protein per mg GP), incubated to allow for complete absorption of protein solution inside the hollow cavity of GPs, and then the samples were frozen and lyophilized. To maximize protein incorporation into GPs, the dry GP-OVA samples were hydrated with 2 μL water per mg GP, mixed, frozen, and lyophilized. TEOS (Millipore Sigma, Burlington, MA, USA; #86578, ≥99% purity, density 0.933 g/mL) was mixed with a 0.01 M HCl (pH 2) solution at a volume ratio of 2:1 (v/v) aqueous HCl:TEOS and the sample was incubated at 20° C. with constant mixing for one hour to allow for partial polymerization of TEOS. Then, the partially polymerized single phase TEOS solution was added to dry GP-protein (4 μL per mg GP) and the sample was incubated for one hour. GP ensilicated protein samples were suspended in 0.9% sterile saline (5 mg GP/mL), centrifuged and the supernatants were collected to quantify unencapsulated protein. The samples were then washed three more times in 0.9% sterile saline, suspended in 0.9% saline at 5 mg GP/mL and stored at 20° C.
GP ensilicated protein was extracted and quantified by following the procedure described above for BSA. Proteins in the GP supernatants and pellets were quantified by SDS-PAGE.
A short description of data set [2]: Ensilication (trapping) efficiency of BSA within GPs, quantified by SDS-PAGE. To be noted: TEOS pre-polymerized at pH 2, TEOS:rBSA ratios of 1.3 to 24.9. It counts as physicochemical. On the procedure: The efficiency of ensilication of BSA within GPs was tested. […] The samples were mixed, incubated at room temperature for 30 minutes, frozen and lyophilized to remove solvent. The loading cycle was repeated by adding 10 μL of water to the dry fGP rBSA sample to draw payload within the matrix of the GP shell into the hollow GP cavity, the sample was mixed and lyophilized to remove solvent.
TEOS was mixed with 0.01 M HCl solution (pH 2). The mixture was mixed for 1 hour to achieve TEOS prepolymerization and formation of a single aqueous phase in which the TEOS was close to its gel point. Solutions with different ratios of TEOS and 0.01 M HCl were prepared to target TEOS:rBSA weight ratios from 0 to 24.9. […]
The ensilicated fGP-rBSA samples were washed three times with 0.9% saline. The ensilicated fGP rBSA pellets were evaluated by microscopy to assess efficient trapping of rBSA within the cavity of fGPs, and percent protein encapsulation was quantified by SDS-PAGE. […]
Acid catalyzed TEOS forms long, linear polymers that easily entangle and gel. […] The percent of BSA trapped in GPs was measured as described above.
GPs containing ensilicated fBSA were also prepared as described before at the optimal TEOS polymerization conditions with 0.01 M HCl (pH 2) for use as control. Percent of BSA trapped in GPs was measured as described above.

Data on 3 molecules can be found in patent US20240058275A1, “NANO-SILICA - IN YEAST PARTICLE (YP) DRUG ENCAPSULATION APPROACH FOR IMPROVED THERMAL AND HYDROLASE STABILITY OF YP DRUG DELIVERY FORMULATIONS” (UNIVERSITY OF MASSACHUSETTS, priority 2022, published 2024).

As to “Transferrin: transferrin protein payload”, the “% encapsulation efficiency in GPs” value in data set [1] is 92 ± 8%.

As for rBSA: rhodamine labeled BSA payload, the “percent of rBSA trapped in fGPs” value in data set [2] is on record as above 80%.

B1: Ovalbumin: ovalbumin protein payload (protein, UniProt P01012 2-386, looked up)
Ovalbumin: GSIGAASMEFCFDVFKELKVHHANENIFYCPIAIMSALAMVYLGAKDSTRTQINKVVRFDKLPGFGDSIEAQCGTSVNVHSSLRDILNQITKPNDVYSFSLASRLYAEERYPILPEYLQCVKELYRGGLEPINFQTAADQARELINSWVESQTNGIIRNVLQPSSVDSQTAMVLVNAIVFKGLWEKAFKDEDTQAMPFRVTEQESKPVQMMYQIGLFRVASMASEKMKILELPFASGTMSMLVLLPDEVSGLEQLESIINFEKLTEWTSSNVMEERKIKVYLPRMKMEEKYNLTSVLMAMGITDVFSSSANLSGISSAESLKISQAVHAAHAEINEAGREVVGSAEAGVDAASVSEEFRADHPFLFCIKHIATNAVLFFGRCVSP
Take B1: the “% encapsulation efficiency in GPs” value in data set [1] was 97 ± 3%.
